Data as given in patent US20230287489.

Molecular target: T1, human placental RNase inhibitor (NEB, Cat #M0307S), P13489
T1 chain: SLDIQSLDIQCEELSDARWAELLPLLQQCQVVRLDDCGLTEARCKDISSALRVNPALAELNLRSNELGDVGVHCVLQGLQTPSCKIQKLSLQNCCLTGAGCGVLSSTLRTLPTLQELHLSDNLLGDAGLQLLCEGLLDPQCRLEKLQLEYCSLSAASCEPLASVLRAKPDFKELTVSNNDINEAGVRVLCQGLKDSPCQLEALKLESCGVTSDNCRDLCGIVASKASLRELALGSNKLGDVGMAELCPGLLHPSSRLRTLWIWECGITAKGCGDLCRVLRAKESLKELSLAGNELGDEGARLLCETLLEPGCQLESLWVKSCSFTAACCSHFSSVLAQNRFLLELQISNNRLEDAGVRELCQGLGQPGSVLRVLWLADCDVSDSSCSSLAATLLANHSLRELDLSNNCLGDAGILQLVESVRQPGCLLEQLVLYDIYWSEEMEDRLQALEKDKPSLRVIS

B1: recombinant wild-type human RNase4 (hRNase 4), periplasmically expressed as an MBP fusion protein (protein)
chain: QDGMYQRFLRQHVHPEETGGSDRYCNLMMQRRKMTLYHCKRFNTFIHEDIWNIRSICSTTNIQCKNGKMNCHEGVVKVTDCRDTGSSRAPNCRYRAIASTRRVVIACEGNPQVPVHFDG
In the case of B1, the “cleavage of a target RNA oligonucleotide (SEQ ID NO: 23) by hRNase 4, LC-MS/MS” value is reported as “cleavage of the target oligonucleotide was inhibited following preincubation of hRNase 4 with human placental RNase inhibitor”.
